Data from article PMC11018352, “Guanidine production by plant homoarginine-6-hydroxylases” (eLife, 2024).

Experiments:
[1] = molecular target: T1, At3g50210 (2-ODD-C23.1) (Arabidopsis thaliana, UniProt Q84MB6); test: inhibition of homoarginine-dependent O2 consumption; type: biochemical; settings: 0.5 mM 2-oxoglutarate, pH 7.2, 30 °C
T1 construct: gene 2ODDC23.1
T1 sequence (Q84MB6 1-332): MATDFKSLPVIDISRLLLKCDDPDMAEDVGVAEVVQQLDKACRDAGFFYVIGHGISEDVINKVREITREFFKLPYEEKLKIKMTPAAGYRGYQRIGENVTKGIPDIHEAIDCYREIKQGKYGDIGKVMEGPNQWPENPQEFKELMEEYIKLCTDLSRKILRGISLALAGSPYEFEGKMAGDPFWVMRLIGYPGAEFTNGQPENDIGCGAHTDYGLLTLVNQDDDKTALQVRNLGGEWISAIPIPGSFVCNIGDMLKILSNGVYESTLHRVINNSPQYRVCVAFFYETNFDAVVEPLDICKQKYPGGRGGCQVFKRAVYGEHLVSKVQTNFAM

[2] = molecular target: T2, Din11s (2-ODD-C23.2, short variant of Din11) (Arabidopsis thaliana, UniProt Q8H113); test: as above; type: biochemical; settings: competitive versus homoarginine; 1 mM canavanine, 0.5 mM 2-oxoglutarate, pH 7.2, 30 °C
T2 construct: gene 2ODDC23.2
T2 sequence (Q8H113 26-357): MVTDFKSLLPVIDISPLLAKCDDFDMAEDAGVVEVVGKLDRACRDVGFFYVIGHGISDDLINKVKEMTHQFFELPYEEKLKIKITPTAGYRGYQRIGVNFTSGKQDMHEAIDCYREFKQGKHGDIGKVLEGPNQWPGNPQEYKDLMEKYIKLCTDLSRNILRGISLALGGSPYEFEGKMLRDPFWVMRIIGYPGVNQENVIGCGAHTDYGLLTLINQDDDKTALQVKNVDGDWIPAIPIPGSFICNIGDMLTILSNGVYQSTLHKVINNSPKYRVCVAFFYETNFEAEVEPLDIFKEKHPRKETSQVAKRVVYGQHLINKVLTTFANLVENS

[3] = molecular target: T3, Gm2-ODD-C23 (soybean 2-ODD-C23) (Glycine max, UniProt A0A0R4J5R0); test: guanidine production in expressing E. coli culture, LC-MS; type: cell-based; settings: 1 mM homoarginine in medium, 18 °C overnight
T3 construct: gene 2ODDC23
T3 sequence (A0A0R4J5R0 1-331): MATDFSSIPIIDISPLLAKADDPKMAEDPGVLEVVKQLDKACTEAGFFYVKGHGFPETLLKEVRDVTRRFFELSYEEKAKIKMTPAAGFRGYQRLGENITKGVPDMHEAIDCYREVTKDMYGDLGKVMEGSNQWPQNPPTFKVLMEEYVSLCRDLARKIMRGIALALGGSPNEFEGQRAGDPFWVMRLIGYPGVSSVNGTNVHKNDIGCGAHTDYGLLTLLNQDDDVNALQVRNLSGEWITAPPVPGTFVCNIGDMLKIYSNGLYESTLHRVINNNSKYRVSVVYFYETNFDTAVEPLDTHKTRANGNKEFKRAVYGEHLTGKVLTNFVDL

[4] = molecular target: T4, 2-ODD33 (Os2-ODD33, rice 2-ODD-C23 ortholog) (Oryza sativa, UniProt Q6K332); test: as above; type: cell-based; settings: 1 mM homoarginine in medium, 18 °C overnight
T4 sequence (Q6K332 1-328): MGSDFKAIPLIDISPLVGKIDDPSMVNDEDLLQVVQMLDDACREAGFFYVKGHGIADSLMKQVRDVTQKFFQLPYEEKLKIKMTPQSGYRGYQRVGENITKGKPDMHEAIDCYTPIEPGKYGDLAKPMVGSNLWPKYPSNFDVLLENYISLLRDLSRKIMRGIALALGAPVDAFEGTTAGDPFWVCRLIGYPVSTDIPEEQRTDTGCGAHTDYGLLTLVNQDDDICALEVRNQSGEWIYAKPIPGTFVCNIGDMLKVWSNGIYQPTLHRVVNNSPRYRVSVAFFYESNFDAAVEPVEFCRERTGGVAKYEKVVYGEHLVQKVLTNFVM

[5] = substrate: O=C(O)[C@@H]1CCCC=N1; test: NADH oxidation, spectrophotometric; type: biochemical, Oryza sativa; settings: NADH as electron donor (fixed 1 mM), pH 7.5, 35 °C
[6] = substrate: N=C(N)NCCCC[C@H](N)C(=O)O; test: O2 consumption, Clark-type electrode; type: biochemical, Arabidopsis thaliana; settings: 0.5 mM 2-oxoglutarate, Fe2+, ascorbate, pH 7.2, 30 °C
[7] = substrate: N=C(N)NCCC[C@H](N)C(=O)O; test: O2 consumption, Clark-type electrode; type: biochemical, Arabidopsis thaliana; settings: 0.5 mM 2-oxoglutarate, Fe2+, ascorbate, pH 7.2, 30 °C
[8] = substrate: N[C@@H](CCCC=O)C(=O)O; test: NAD+ reduction, spectrophotometric; type: biochemical, Arabidopsis thaliana; settings: 1 mM NAD+, pH 7.5, 35 °C, substrate is the AASA/P6C equilibrium mixture
[9] = substrate: NC(=O)c1ccc[n+]([C@@H]2O[C@H](COP(=O)(O)OP(=O)(O)OC[C@H]3O[C@@H](n4cnc5c(N)ncnc54)[C@H](O)[C@@H]3O)[C@@H](O)[C@H]2O)c1; test: NAD+ reduction, spectrophotometric; type: biochemical, Arabidopsis thaliana; settings: 1 mM AASA/P6C, pH 7.5, 35 °C, varied: cofactor

## N=C(N)NOCC[C@H](N)C(=O)O [canavanine]
[1]; mixed type versus homoarginine, 1 mM canavanine
  inhibition of homoarginine-dependent O2 consumption: the inhibition of At3g50210 was of the mixed type
[2]
  inhibition of homoarginine-dependent O2 consumption: canavanine showed competitive inhibition of the reaction of Din11s with homoarginine

## N=C(N)NCCCC[C@H](N)C(=O)O [homoarginine]
[3]
  guanidine production in expressing E. coli culture, LC-MS: orthologs from soybean and rice (2-ODD33) mediated homoarginine-dependent guanidine accumulation
[4]
  guanidine production in expressing E. coli culture, LC-MS: orthologs from soybean and rice (2-ODD33) mediated homoarginine-dependent guanidine accumulation

## N=C(N)NCCC[C@H](N)C(=O)O [arginine]
[1]; competitive versus homoarginine, 1 mM arginine
  inhibition of homoarginine-dependent O2 consumption: we detected a competitive inhibition of Din11s and At3g50210

B1: OsP5CR (pyrroline-5-carboxylate reductase from rice) (Oryza sativa Japonica Group) (protein)
chain: MAAPPQPVPAPAAASPEVFRLGFIGPGNLAESIARGVAASGVLPATAIRTAPHRRPERAEAFSSIGAHILETNAQVVDDSDVIVISVKPQIVRQVLVELKPLLSEEKLLVSIAAGIKMEDLQGWSGHRRFIRVMPNTPSAVGQAASVMCLGEMATENDENRVRSLFSAIGKVWTAEEKYFDAVTGLSGSGPAYIFLAIEAMADGGVAAGLPRDLALGLASQTVLGAATMVNKTGKHPGQLKDMVTSPAGTTITGIQELEKGAFRGTLINAVVAATKRCRELSQS
notes: recombinant, purified
[5]
  Km: 173 ± 18 µM

B2: Din11s (2-ODD-C23.2, short variant of Din11) (Arabidopsis thaliana) (protein)
chain: T2 sequence (Q8H113 26-357)
[6]
  Km: 1900 ± 300 µM
[7]
  Km: 6000 ± 5100 µM

B3: At3g49630 (2-ODD-C23.3) (Arabidopsis thaliana) (protein)
chain: MATNFKSLLPVIDISPLVVKCDDANMAEDAGVAEVVGKLDRACRDAGFFYVIGHGISEDFIRKVRVMSHQFFELPYEEKLKIKITPAAGYRGYQRIGLNLTNGKQDMHEAIDCYKEFKQGKHGDIGKVMEGANQWPENPQEYKELMEEYIKLCIDLSRNILRGISLALGGSPYEFEGKMLTDPFWIMRILGYPGVNQENVIGCGAHTDYGLLSLINQDDDKTALQVRDLAGDWIPVIPIPGSFVCNIGDMLKILSNGVYESTLHRVINNSPRYRVCVGFFYETNFDAAVEPLDIFKEKYPGKGTSQVFKRVVYGEHLVHKLQTTFQNLVEHS
notes: b44 prints At3g49620, apparently a slip for At3g49630
[6]
  Km: 4600 ± 200 µM

B4: AtALDH7B4 (At1g54100, AASA-DH) (Arabidopsis thaliana) (protein)
chain: MGSANNEYEFLSEIGLTSHNLGSYVAGKWQANGPLVSTLNPANNQPIAQVVEASLEDYEQGLKACEEAAKIWMQVTAPKRGDIVRQIGDALRSKLDYLGRLLSLEMGKILAEGIGEVQEVIDMCDFAVGLSRQLNGSVIPSERPNHMMLEMWNPLGIVGVITAFNFPCAVLGWNACIALVCGNCVVWKGAPTTPLITIAMTKLVAEVLEKNNLPGAIFTAMCGGAEIGEAIAKDTRIPLVSFTGSSRVGSMVQQTVNARSGKTLLELSGNNAIIVMDDADIQLAARSVLFAAVGTAGQRCTTCRRLLLHESVYDKVLEQLLTSYKQVKIGNPLEKGTLLGPLHTPESKKNFEKGIEVIKSQGGKILTGGKAVEGEGNFVEPTIIEISADAAVVKEELFAPVLYVLKFKSFGEAVAINNSVPQGLSSSIFTRNPENIFRWIGPLGSDCGIVNVNIPTNGAEIGGAFGGEKATGGGREAGSDSWKQYMRRSTCTINYGNELPLAQGINFG
[8]
  Km: 11.9 ± 1.0 µM
[9]
  Km: 324 ± 17 µM

B5: At3g50210 (2-ODD-C23.1) (Arabidopsis thaliana) (protein)
chain: T1 sequence (Q84MB6 1-332)
[6]
  Km: 780 ± 150 µM
